Measured values from patent US20220396632A1 (VERSEAU THERAPEUTICS, published 2022).
Non-standard residues stand in square brackets, D forms with d. No end group written: not given here. *: point of attachment. Biotin = O=C1N[C@H]2[C@H](CS[C@H]2CCCCC(=O)*)N1; sY = N[C@@H](Cc1ccc(OS(=O)(=O)O)cc1)C(=O)O

T1: Recombinant human PSGL-1(ECD)-hFc1 (R&D Systems, Cat. 3345-PS) (human, UniProt Q14242 42-305)
T1 construct: Bought; Gln42-Val295 counted on AAC50061; also called PSGL-1-Fc; PSGL-1-hFc1 chimera; not shown: human IgG1 Fc, Pro100-Lys330
T1 sequence: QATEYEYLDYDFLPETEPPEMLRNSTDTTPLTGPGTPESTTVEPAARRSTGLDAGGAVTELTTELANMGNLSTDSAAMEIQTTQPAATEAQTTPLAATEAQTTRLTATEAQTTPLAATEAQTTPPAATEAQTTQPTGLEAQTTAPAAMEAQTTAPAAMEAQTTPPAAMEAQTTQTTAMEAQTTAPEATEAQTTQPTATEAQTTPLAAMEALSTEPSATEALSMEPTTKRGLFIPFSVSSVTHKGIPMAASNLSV

T2: Biotin PSGL-1(290-310) peptide (human, N-terminal acetyl; C-terminal Lys-biotin)
T2 peptide: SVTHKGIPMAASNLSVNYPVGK

T3: Human PSGL-1(ECD)-HIS (human, UniProt Q14242 42-319)
T3 construct: also called Human PSGL-1-His
T3 sequence: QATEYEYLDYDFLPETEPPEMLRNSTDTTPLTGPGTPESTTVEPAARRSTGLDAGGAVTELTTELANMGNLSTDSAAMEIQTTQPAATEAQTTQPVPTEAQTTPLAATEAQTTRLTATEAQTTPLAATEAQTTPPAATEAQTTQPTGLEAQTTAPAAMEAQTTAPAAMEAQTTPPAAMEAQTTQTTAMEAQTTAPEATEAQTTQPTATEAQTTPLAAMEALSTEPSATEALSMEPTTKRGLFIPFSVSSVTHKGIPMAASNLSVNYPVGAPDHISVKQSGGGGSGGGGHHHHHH

T4: 42-80 (C-terminal Lys-biotin)
T4 construct: also called Biotin PSGL-1(42-80) peptide
T4 peptide: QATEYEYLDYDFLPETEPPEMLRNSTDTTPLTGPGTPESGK

T5: Biotin PSGL-1(105-125) peptide (human, N-terminal acetyl; C-terminal Lys-biotin)
T5 peptide: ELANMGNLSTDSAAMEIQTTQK

T6: Biotin PSGL-1(42-62) peptide, unmodified (human, C-terminal Lys-biotin)
T6 construct: Residues 42-62 followed by GGGK-biotin; also called WT; wild-type
T6 peptide: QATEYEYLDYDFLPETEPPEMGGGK

T7: Sulfotyrosine CCR2b biotin peptide (human)
T7 construct: also called CCR2b peptide
T7 peptide: TTFFD[sY]D[sY]GAPSHGGK(Biotin)

T8: Biotin Y46,48,51(SO3) PSGL-1(42-62) peptide (human, sulfotyrosine at Y46, Y48 and Y51; C-terminal Lys-biotin)
T8 construct: also called fully sulfated N-terminal PSGL-1 peptide
T8 peptide: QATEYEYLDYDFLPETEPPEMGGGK

T9: PSGL-1(42-62) N-terminal peptide, sulfation state not told at the place (human, not fully specified; sulfation of Y46, Y48, Y51 not stated for these table columns)
T9 peptide: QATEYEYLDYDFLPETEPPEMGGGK

B1: 18F17 (antibody, V domains shown)
VH: QVTLKESGPGILQPSQTLSLTCSFSGFSLSTFGMGVGWIRQPSGKGLEWLAHIWWDDDKYYNPALKSRLTISKDTSKNQVFLKIANVDTADTATYYCAIYYDYGVGFDYWGQGTTLTVSS
VL: DIVMTQAAPSVPVTPGESVSISCRSSKSLLHSNGYTFLYWFLQRPGQSPQLLIYRMSNLASGVPDRFSGSGSGTAFTLRISRVEAEDVGVYYCMQHLEYPFTFGTGTKLEIK
notes: Non-functional anti-PSGL-1 mAb (Verseau); only variable domains given
B2: 06G08 (antibody, IgG4, V domains shown)
VH: EVKLLESGGGVVQPGGSLRLSCAVSGFTFSNYAMHWVRQAPGKGLEWVAVISFDGSNKYTADSVQGRFTISRDNSKNTLYLQMNSLTPEDTAVYYCASRIIRTVAGGDYWGQGTLVTVSS
VL: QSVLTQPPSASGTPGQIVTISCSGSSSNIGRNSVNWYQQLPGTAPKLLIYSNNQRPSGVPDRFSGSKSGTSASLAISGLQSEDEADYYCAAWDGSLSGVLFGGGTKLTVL
B3: 19J23 (antibody, V domains shown)
VH: EVKLVESGGGLVQPGGSLSLSCAASGFTFTDYYMSWVRQPPGKALEWLALIRNKANGYTTEYSASVKGRFTISRDDSQSILYLQVNALRAEDVATYYCARPWDYWGQGTTLTVSS
VL: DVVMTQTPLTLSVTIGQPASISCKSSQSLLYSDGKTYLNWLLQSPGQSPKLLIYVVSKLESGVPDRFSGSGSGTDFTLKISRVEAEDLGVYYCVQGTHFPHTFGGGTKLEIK
notes: as for B1
B4: 15A7 (antibody, V domains shown)
VH: EVQLVESGGGLVQPGGSLRLSCAASGFTFSSFGMHWVRQAPGKGLEWVAYINGGSSTIFYANAVKGRFTISRDNAKNTLYLQMNSLRAEDTAVYYCARYASYGGGAMDYWGQGTLVTVSS
VL: DIQMTQSPSSLSASVGDRVTITCRSSQSIVHNDGNTYFEWYQQKPGKAPKLLIYKVSNRFSGVPSRFSGSGSGTHFTLTISSLQPEDFATYYCFQGSYVPLTFGQGTKVEIK
notes: Control mAb, recombinant; also called h15A7; 15A17

Assays:
[1] = target: T1, Recombinant human PSGL-1(ECD)-hFc1 (R&D …); assay: Octet tandem; competitor 15A7
Method: (§1) Antibody binning was performed by ForteBio Octet® using a tandem assay format, with anti-human IgG biosensor-immobilized PSGL-1(ECD)-hFc1 protein, binding of competitor mAb followed by analyte antibody. As competition controls, the same antibody was competed against itself, and mAb competition was performed bidirectionally.
(§2) Antibody binning by tandem octet was performed by immobilizing 10 ug/mL PSGL-1(ECD)-hFc1 (R&D Systems, Cat. #3345-PS) in PBS, pH 7.4, onto anti-human IgG capture biosensors (ForteBio, Cat. #18-5060), binding of 100 nM competitor antibody for 300 sec., followed by binding of 100 nM of analyte mAb for 300 s in kinetic buffer (0.1% BSA in PBS containing 0.02% tween 20 and 0.05% sodium azide, pH 7.4). Synagis (Johnson et al. (1997) J. Infect. Dis. 176:1215-1224) served as a negative control mAb for competition. An Fc quench step (0.25 mg/mL human IgG Fcl; BioXcell, Cat. #BE0096, in kinetic buffer) was included when human mAbs were tested to prevent high background from the antibodies binding to the anti-human IgG biosensor. Biosensor regeneration buffer consisted of 10 mM glycine, pH 2.0.

[2] = target: T1, Recombinant human PSGL-1(ECD)-hFc1 (R&D …); assay: Octet tandem; competitor 16E17
Method: as §1, §2

[3] = target: T1, Recombinant human PSGL-1(ECD)-hFc1 (R&D …); assay: Octet tandem; competitor 18F17
Method: as §1, §2

[4] = target: T1, Recombinant human PSGL-1(ECD)-hFc1 (R&D …); assay: Octet tandem; competitor 18K07
Method: as §1, §2

[5] = target: T1, Recombinant human PSGL-1(ECD)-hFc1 (R&D …); assay: Octet tandem; competitor 19J23
Method: as §1, §2

[6] = target: T1, Recombinant human PSGL-1(ECD)-hFc1 (R&D …); assay: Octet tandem; competitor 19L04
Method: as §1, §2

[7] = target: T1, Recombinant human PSGL-1(ECD)-hFc1 (R&D …); assay: Octet tandem; competitor 19N05
Method: as §1, §2

[8] = target: T1, Recombinant human PSGL-1(ECD)-hFc1 (R&D …); assay: Octet tandem; competitor 20G13
Method: as §1, §2

[9] = target: T2, Biotin PSGL-1(290-310) peptide; assay: ELISA; against WT PSGL-1(ECD)-hFc1
Method: (§3) A typical ELISA experiment involved binding of a single concentration or serially diluted mAb in assay buffer (3% BSA in PBS containing 0.05% Tween®20, pH 7.4) onto BSA blocked high binding microtiter plate half-wells (Corning Cat. #3690), which contained PSGL-1 protein or streptavidin-immobilized biotin peptide. After incubation for 45 min. at 37° C., the plate was washed 3 times with wash buffer (PBS containing 0.05% Tween®20, pH 7.4), and an appropriate HRP-conjugated secondary antibody added (25 ul/well) (HRP goat anti-mouse or anti-human IgG). After 45 min. incubation at 37° C., the plate was washed and antibody bound to plate-immobilized target was determined at A450 nm using HRP substrate (3,3′5,5′-tetramethylbenzidine (TMB)). For each antibody, duplicate values were averaged and assay background subtracted.

[10] = target: PSGL-1(ECD)-hFc1 S116A protein (Sino Biological) (human); assay: ELISA; against WT PSGL-1(ECD)-hFc1
Method: as §3

[11] = target: PSGL-1(ECD)-hFc1 M119A protein (Sino Biological) (human); assay: ELISA; against WT PSGL-1(ECD)-hFc1
Method: as §3

[12] = target: PSGL-1(ECD)-hFc1 I121A protein (Sino Biological) (human); assay: ELISA; against WT PSGL-1(ECD)-hFc1
Method: as §3

[13] = target: T2, Biotin PSGL-1(290-310) peptide; assay: ELISA, plate-bound peptide or protein
Method: as §3

[14] = target: PSGL-1(ECD)-hFc1 S116A protein (Sino Biological) (human); assay: ELISA, plate-bound peptide or protein
Method: as §3

[15] = target: PSGL-1(ECD)-hFc1 M119A protein (Sino Biological) (human); assay: ELISA, plate-bound peptide or protein
Method: as §3

[16] = target: PSGL-1(ECD)-hFc1 I121A protein (Sino Biological) (human); assay: ELISA, plate-bound peptide or protein
Method: as §3

Human PSGL-1(ECD)-HIS = target: T3, Human PSGL-1(ECD)-HIS; assay: ELISA, plate-immobilized protein
42-80 = target: T4, 42-80; assay: ELISA, streptavidin-immobilized biotin peptide
Method: as §3

[17] = target: T5, Biotin PSGL-1(105-125) peptide; assay: ELISA, streptavidin-immobilized biotin peptide
Method: as §3

[18] = target: T6, Biotin PSGL-1(42-62) peptide, unmodified; assay: ELISA, streptavidin-immobilized biotin peptide
Method: as §3

[19] = target: T7, Sulfotyrosine CCR2b biotin peptide; assay: ELISA, plate-bound peptide
[20] = target: T8, Biotin Y46,48,51(SO3) PSGL-1(42-62) …; assay: ELISA, plate-bound peptide
[21] = target: T1, Recombinant human PSGL-1(ECD)-hFc1 (R&D …); assay: ELISA, plate-immobilized protein
[22] = target: T9, PSGL-1(42-62) N-terminal peptide, …; assay: mAb binding to PSGL-1(42-62)
[23] = target: T1, Recombinant human PSGL-1(ECD)-hFc1 (R&D …); assay: blocking ELISA vs L-selectin-Fc
Method: (§4) A typical selectin blocking ELISA assay involved coating high binding half-well plates (Corning, Cat. #3690) with 2.5 ug/mL/25 ul per well of recombinant PSGL-1-Fc protein (R&D Systems, Cat #3345-PS) in PBS, pH 7.4, overnight at 4° C. […] Antibody (test and controls) was serially diluted (25 ul/well) in duplicate in assay buffer (3% BSA in wash buffer) into appropriate wells and the plate incubated for 45 min at 37° C. […] The plate was washed ×3 and HRP-conjugated streptavidin was added in assay buffer [25 ul per well; (Jackson Immunoresearch, Cat. #016-030-084)] and the plate incubated for 45 min at 37° C. […] For each antibody, an IC50 value was determined from sigmoidal fitted titration curves.

[24] = target: T1, Recombinant human PSGL-1(ECD)-hFc1 (R&D …); assay: blocking ELISA vs P-selectin-Fc
Method: as §4

[25] = target: T1, Recombinant human PSGL-1(ECD)-hFc1 (R&D …); assay: blocking ELISA vs VISTA-Fc, pH 6.0
[26] = target: T5, Biotin PSGL-1(105-125) peptide; assay: ELISA; against WT PSGL-1(ECD)-hFc1
Method: as §3

[27] = target: T5, Biotin PSGL-1(105-125) peptide; assay: ELISA, plate-bound peptide or protein
Method: as §3

PSGL-1(ECD)-hFc1 S116A protein (Sino Biological) (human), sequence (chain, as listed by the source S116A S116A): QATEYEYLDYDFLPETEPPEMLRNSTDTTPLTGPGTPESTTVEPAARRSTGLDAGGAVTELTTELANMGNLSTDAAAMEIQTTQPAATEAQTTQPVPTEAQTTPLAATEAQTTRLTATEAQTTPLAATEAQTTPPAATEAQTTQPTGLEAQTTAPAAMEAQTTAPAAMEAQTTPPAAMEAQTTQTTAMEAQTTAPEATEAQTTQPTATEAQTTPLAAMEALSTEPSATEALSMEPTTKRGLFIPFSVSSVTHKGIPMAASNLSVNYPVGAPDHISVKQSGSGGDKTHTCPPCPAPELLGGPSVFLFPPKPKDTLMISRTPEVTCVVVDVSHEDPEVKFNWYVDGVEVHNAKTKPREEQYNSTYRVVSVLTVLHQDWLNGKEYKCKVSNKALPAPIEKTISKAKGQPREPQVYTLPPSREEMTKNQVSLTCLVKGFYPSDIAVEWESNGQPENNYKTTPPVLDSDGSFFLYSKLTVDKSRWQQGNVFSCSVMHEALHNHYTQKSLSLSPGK
PSGL-1(ECD)-hFc1 I121A protein (Sino Biological) (human), sequence (chain, as listed by the source I121A I121A): as the sequence (chain, as listed by the source S116A S116A) above, with A75S, I80A counted along it

Binder | % binding of analyte mAb [1] | % binding of analyte mAb [2] | % binding of analyte mAb [3] | % binding of analyte mAb [4] | % binding of analyte mAb [5] | % binding of analyte mAb [6] | % binding of analyte mAb [7] | % binding of analyte mAb [8] | EC50/EC50WTprot [9] | EC50/EC50WTprot [10] | EC50/EC50WTprot [11] | EC50/EC50WTprot [12] | EC50 [13] | EC50 [14] | EC50 [15] | EC50 [16] | EC50 (read off the curve) (Human PSGL-1(ECD)-HIS) | further results
B1 | 61.9% | 124% | 28.2% | 90.7% | 26.9% | 68.7% | 84.2% | 22% | < 1 fold | 0.67 fold | 0.74 fold | 0.68 fold | < 0.5 nM | 0.54 nM | 0.6 nM | 0.55 nM | ~0.7 nM | binding result (42-80): no binding (tested: 10 nM); binding result [17]: no binding (tested: 10 nM); binding result [18]: no binding (tested: 10 nM)
B2 |  |  |  |  |  |  |  |  |  |  |  |  |  |  |  |  |  | binding result [19]: no binding (tested: 20 nM); EC50 [20]: 0.71 nM
B3 | 84.9% | 93.3% | 52.1% | 100% | 29.2% | 68.9% | 76.6% | 55.9% | 3.1 fold |  |  |  | 2.19 nM |  |  |  | ~0.9 nM | binding result [21]: no binding (tested: Log M -7.4 (about 40 nM))
B4 | 28.3% | 56.2% | 86.6% | 91.5% | 94.3% | 48% | 46.2% | 15.1% |  | 0.78 fold | ~30 fold | ~60 fold |  | 0.25 nM | ~10 nM | ~20 nM |  | binding result [22]: no binding; % max Block [23]: 0%; % max Block [24]: 0%; % max Block [25]: 0%; EC50/EC50WTprot [26]: 7.18 fold; EC50 [27]: 4.31 nM
